Laboratory results taken from the RNAGym collection of RNA variant scans (doi:10.1021/acssynbio.7b00057).

B1: Pistol ribozyme (parent)
chain: GGGUCGUUGUUCCAUAAUCGCGUGGAUAUGGCACGCAAGUUUCUACCGGGCACCGUAAAUGUCCGACUGGAGCCGUUCGGGCGGCUAUAAACAGACCUCAGGCCCGAAGCGUGGCGGCACCUGCCGCCGGUGGUAAAAAAGAUCGGAAGAGCACACGUCU

Variants of: B1
Assay: aptazyme ON/OFF ratio, guanine; higher = stronger switching; co-transcriptional cleavage with and without guanine

| Variant | aptazyme ON/OFF ratio |
| --- | --- |
| U7C U8C G9U U10C C13A | 1.2 |
| U7C U8C U10A C12U C13U | 1.03 |
| U7C U8C U10A C12U C13A | 1.06 |
| U7C U8C U10A C12U C13G | 1.06 |
| U7C U8C G9U U10C U11C C12A | 1.22 |
| U7C U8C G9U U10C U11C C12G | 1.06 |
| U7C U8C G9U U10C U11C C12U | 1.23 |
| U7C U8C U10C C12U C13A | 1.35 |
| U7C U8C U10C C12U C13G | 1.34 |
| U7C U8C U10C C12U C13U | 1.45 |
| U7C U8C G9U U10C U11A C12U C13A | 1.13 |
| U7C U8C G9U U10C U11A C12U C13G | 1.14 |
| U7C U8C G9U U10C U11A C12U C13U | 1.09 |
| U7C U8C G9U U10G U11A C13G | 1.1 |
| U7C U8C G9U U10G U11A C13U | 1.17 |
| U7C U8C G9U U10G U11A C13A | 1.18 |
| U7C U8C G9U U10G U11C | 1.39 |
| U7C U8C G9U U10G U11A | 1.32 |
| U7C U8C G9U U10G U11G | 1.21 |
| U7C U8C U10A U11C C12A C13G | 1.16 |
| U7C U8C U10A U11C C12A C13A | 1.13 |
| U7C U8C U10A U11C C12A C13U | 1.15 |
| U7C U8C G9U U10G U11C C13U | 1.21 |
| U7C U8C G9U U10G U11C C13G | 1.06 |

| Variant | aptazyme ON/OFF ratio |
| --- | --- |
| U7C U8C G9U U10G U11C C13A | 1.29 |
| U7C U8C U10A U11G C12U | 1.25 |
| U7C U8C U10A U11G C12G | 1.41 |
| U7C U8C U10A U11G C12A | 1.13 |
| U7C U8C U10A U11G C12G C13A | 1.25 |
| U7C U8C U10A U11G C12G C13G | 1.22 |
| U7C U8C U10A U11G C12G C13U | 1.14 |
| U7C U8C G9U U11C C12A | 1.17 |
| U7C U8C G9U U11C C12G | 1.22 |
| U7C U8C G9U U11C C12U | 1.04 |
| U7C U8C U10A U11C C13U | 1.03 |
| U7C U8C U10A U11C C13A | 1.07 |
| U7C U8C U10A U11C C13G | 1.1 |
| U7C U8C G9U U10G U11C C12U C13G | 1.09 |
| U7C U8C G9U U10G U11C C12U C13U | 1.18 |
| U7C U8C G9U U10G U11C C12U C13A | 1.12 |
| U7C U8C G9U U11G C12G C13A | 1.09 |
| U7C U8C G9U U11G C12G C13G | 1.14 |
| U7C U8C G9U U11G C12G C13U | 1.05 |
| U7C U8C G9U U10G U11G C12U C13G | 1.09 |
| U7C U8C G9U U10G U11G C12U C13A | 1.08 |
| U7C U8C G9U U10G U11G C12U C13U | 1.08 |
| U7C U8C G9U U10C C12U C13U | 1.28 |
| U7C U8C G9U U10C C12U C13A | 1.12 |

| Variant | aptazyme ON/OFF ratio |
| --- | --- |
| U7C U8C G9U U10C C12U C13G | 1.1 |
| U7C U8C G9U U10A U11A C12G C13A | 1.03 |
| U7C U8C G9U U10A U11A C12G C13U | 1.11 |
| U7C U8C G9U U10A U11A C12G C13G | 1.19 |
| U7C U8C G9U U10A U11G C13G | 1.11 |
| U7C U8C G9U U10A U11G C13A | 1.12 |
| U7C U8C G9U U10A U11G C13U | 1.31 |
| U7C U8C G9U U10G U11A C12A C13G | 1.08 |
| U7C U8C G9U U10G U11A C12A C13A | 1.2 |
| U7C U8C G9U U10G U11A C12A C13U | 1.17 |
| U7C U8C G9U U10C U11A | 2.44 |
| U7C U8C G9U U10C U11G | 1.32 |
| U7C U8C G9U U10C U11C | 1.3 |
| U7C U8C U10A U11C | 1.03 |
| U7C U8C U10A U11A | 1.63 |
| U7C U8C U10A U11G | 1.37 |
| U7C U8C G9U U10G C13A | 1.21 |
| U7C U8C G9U U10G C13G | 1.12 |
| U7C U8C G9U U10G C13U | 1.39 |
| U7C U8C G9U U10C U11G C13G | 1.3 |
| U7C U8C G9U U10C U11G C13A | 1.07 |
| U7C U8C G9U U10C U11G C13U | 1.29 |
| U7C U8C G9U U10C C12A C13G | 1.09 |
| U7C U8C G9U U10C C12A C13U | 1.07 |

| Variant | aptazyme ON/OFF ratio |
| --- | --- |
| U7C U8C G9U U10C C12A C13A | 1.17 |
| U7C U8C U10A C12A C13A | 1.05 |
| U7C U8C U10A C12A C13U | 1.04 |
| U7C U8C U10A C12A C13G | 1.06 |
| U7C U8C G9U U10G U11C C12U | 1.25 |
| U7C U8C G9U U10G U11C C12A | 1.17 |
| U7C U8C G9U U10G U11C C12G | 1.24 |
| U7C U8C G9U U10G U11C C12G C13G | 1.17 |
| U7C U8C G9U U10G U11C C12G C13A | 1.08 |
| U7C U8C G9U U10G U11C C12G C13U | 1.1 |
| U7C U8C G9U U10C U11A C12A C13U | 1.09 |
| U7C U8C G9U U10C U11A C12A C13A | 1.17 |
| U7C U8C G9U U10C U11A C12A C13G | 1.17 |
| U7C U8C U10A C12G C13U | 1.07 |
| U7C U8C U10A C12G C13G | 1.12 |
| U7C U8C U10A C12G C13A | 1.12 |
| U7C U8C U10C C12G C13G | 1.18 |
| U7C U8C U10C C12G C13U | 1.2 |
| U7C U8C U10C C12G C13A | 1.24 |
| U7C U8C G9U U10A U11G C12G C13G | 1.08 |
| U7C U8C G9U U10A U11G C12G C13A | 1.19 |
| U7C U8C G9U U10A U11G C12G C13U | 1.07 |
| U7C U8C G9U U10A C12U | 1.17 |
| U7C U8C G9U U10A C12G | 1.22 |

| Variant | aptazyme ON/OFF ratio |
| --- | --- |
| U7C U8C G9U U10A C12A | 1.22 |
| U7C U8C G9U U10A C12G C13U | 1.08 |
| U7C U8C G9U U10A C12G C13G | 1.12 |
| U7C U8C G9U U10A C12G C13A | 1.16 |
| U7C U8C G9U U10A U11A C13G | 1.14 |
| U7C U8C G9U U10A U11A C13U | 1.22 |
| U7C U8C G9U U10A U11A C13A | 1.13 |
| U7C U8C G9U U11G C12G | 1.19 |
| U7C U8C G9U U11G C12U | 1.19 |
| U7C U8C G9U U11G C12A | 1.19 |
| U7C U8C G9U U10A U11A C12A | 1.27 |
| U7C U8C G9U U10A U11A C12U | 1.28 |
| U7C U8C G9U U10A U11A C12G | 1.2 |
| U7C U8C G9U U10A U11G C12A | 1.2 |
| U7C U8C G9U U10A U11G C12U | 1.11 |
| U7C U8C G9U U10A U11G C12G | 1.15 |
| U7C U8C G9U U10C C12G C13A | 1.11 |
| U7C U8C G9U U10C C12G C13G | 1.11 |
| U7C U8C G9U U10C C12G C13U | 1.13 |
| U7C U8C U10A U11G C12A C13G | 1.11 |
| U7C U8C U10A U11G C12A C13U | 1.12 |
| U7C U8C U10A U11G C12A C13A | 1.06 |
| U7C U8C U10A U11A C12G C13A | 1.14 |
| U7C U8C U10A U11A C12G C13G | 1.21 |

| Variant | aptazyme ON/OFF ratio |
| --- | --- |
| U7C U8C U10A U11A C12G C13U | 1.11 |
| U7C U8C G9U U11G C12A C13A | 1.19 |
| U7C U8C G9U U11G C12A C13U | 1.14 |
| U7C U8C G9U U11G C12A C13G | 1.11 |
| U7C U8C G9U U10G U11C C12A C13A | 1.18 |
| U7C U8C G9U U10G U11C C12A C13U | 1.1 |
| U7C U8C G9U U10G U11C C12A C13G | 1.07 |
| U7C U8C G9U U10G U11A C12G C13A | 1.06 |
| U7C U8C G9U U10G U11A C12G C13U | 1.08 |
| U7C U8C G9U U10G U11A C12G C13G | 1.18 |
| U7C U8C G9U U10G C12U C13G | 1.12 |
| U7C U8C G9U U10G C12U C13A | 1.1 |
| U7C U8C G9U U10G C12U C13U | 1.21 |
| U7C U8C G9U U10A U11C C12G C13G | 1.19 |
| U7C U8C G9U U10A U11C C12G C13U | 1.15 |
| U7C U8C G9U U10A U11C C12G C13A | 1.17 |
| U7C U8C U10C U11A C12U C13G | 1.25 |
| U7C U8C U10C U11A C12U C13U | 1.29 |
| U7C U8C U10C U11A C12U C13A | 1.33 |
| U7C U8C U10A C12U | 1.12 |
| U7C U8C U10A C12G | 1.08 |
| U7C U8C U10A C12A | 1.06 |
| U7C U8C U10C U11A C12G C13G | 1.29 |
| U7C U8C U10C U11A C12G C13A | 1.15 |

| Variant | aptazyme ON/OFF ratio |
| --- | --- |
| U7C U8C U10C U11A C12G C13U | 1.2 |
| U7C U8C G9U U10A C13A | 1.14 |
| U7C U8C G9U U10A C13G | 1.09 |
| U7C U8C G9U U10A C13U | 1.27 |
| U7C U8C G9U U10A U11C C12G | 1.36 |
| U7C U8C G9U U10A U11C C12U | 1.19 |
| U7C U8C G9U U10A U11C C12A | 1.19 |
| U7C U8C U10A U11A C12U C13G | 1.28 |
| U7C U8C U10A U11A C12U C13A | 1.13 |
| U7C U8C U10A U11A C12U C13U | 1.16 |
| U7C U8C G9U U10A U11G C12A C13A | 1.19 |
| U7C U8C G9U U10A U11G C12A C13G | 1.05 |
| U7C U8C G9U U10A U11G C12A C13U | 1.12 |
| U7C U8C G9U U10C U11G C12U | 1.22 |
| U7C U8C G9U U10C U11G C12A | 1.16 |
| U7C U8C G9U U10C U11G C12G | 1.16 |
| U7C U8C U10C U11A | 1.9 |
| U7C U8C G9U U11C C12A C13U | 1.14 |
| U7C U8C G9U U11C C12A C13G | 1.04 |
| U7C U8C G9U U11C C12A C13A | 1.06 |
| U7C U8C G9U U11C C12G C13G | 1.12 |
| U7C U8C G9U U11C C12G C13A | 1.12 |
| U7C U8C G9U U11C C12G C13U | 1.08 |
